From patent publication US20060177432A1

Tests used:
Experiment in all cases: cell-based or functional assay
chymotrypsin = biological target: chymotrypsin
human α-thrombin (human) = human α-thrombin (human) (UniProt P00734)
neuropsin = biological target: neuropsin

inhibition of amidolytic activity (chromogenic substrate, 405 nm) (chymotrypsin): 25%
inhibition of amidolytic activity (chromogenic substrate, 405 nm) (human α-thrombin (human)): 55%
inhibition of amidolytic activity (chromogenic substrate, 405 nm) (neuropsin): 70%
Substance: 6xHis-PEBP (recombinant mouse PEBP with a 6xHis-tag at the N-terminus) (from UniProt P70296 2-187)
